The target in data set [1] is T1, FZP (FRIZZY PANICLE) (Oryza sativa, UniProt Q8H3Q1 1-318). In words: EMSA; 1.5 ug protein; EMSA, 15 ul, 1 ug biotin probe, 0.5-1.5 ug protein, LightShift Chemiluminescent EMSA Kit (Thermo) binding buffer; salt, pH and temperature not stated. The settings on record: protein: recombinant; tags: His-SUMO (pET-SUMO); label: 5' biotin; blunt. On the technique in general: Mobility shift assays separate free from complexed probe on a gel.

In data set [2] the target is T1, FZP (FRIZZY PANICLE). In words: EMSA; 0.5, 1 and 1.5 ug protein; EMSA, 15 ul, 1 ug biotin probe, 0.5-1.5 ug protein, LightShift Chemiluminescent EMSA Kit (Thermo) binding buffer; salt, pH and temperature not stated. The following applies: protein: recombinant; tags: His-SUMO (pET-SUMO); label: 5' biotin; blunt.

T1 sequence (Q8H3Q1 whole entry): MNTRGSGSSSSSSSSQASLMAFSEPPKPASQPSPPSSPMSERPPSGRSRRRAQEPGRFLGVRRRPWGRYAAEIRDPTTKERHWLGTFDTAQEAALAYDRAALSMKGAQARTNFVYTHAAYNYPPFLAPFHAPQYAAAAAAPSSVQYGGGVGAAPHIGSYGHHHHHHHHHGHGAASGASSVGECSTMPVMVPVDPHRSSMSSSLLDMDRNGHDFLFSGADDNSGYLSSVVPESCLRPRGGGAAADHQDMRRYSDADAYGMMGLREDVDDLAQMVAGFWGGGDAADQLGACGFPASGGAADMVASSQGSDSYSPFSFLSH

B1: mGCC-box probe (3 repeats) (dsDNA)
DNA 1: CATAAGATACTTGACTCATAAGATACTTGACTCATAAGATACTTGACT
DNA 2: AGTCAAGTATCTTATGAGTCAAGTATCTTATGAGTCAAGTATCTTATG
For B1, the binding result with FZP (FRIZZY PANICLE) [1] is “no binding”.

B2: mDRE probe (3 repeats) (dsDNA)
DNA 1: ATACGTCTTTGACGAGATACGTCTTTGACGAGATACGTCTTTGACGAG
DNA 2: CTCGTCAAAGACGTATCTCGTCAAAGACGTATCTCGTCAAAGACGTAT
With B2, the binding result with FZP (FRIZZY PANICLE) [1] is “no binding”.

B3: GCC-box probe (3 repeats) (dsDNA)
DNA 1: CATAAGAGCCGCCACTCATAAGAGCCGCCACTCATAAGAGCCGCCACT
DNA 2: AGTGGCGGCTCTTATGAGTGGCGGCTCTTATGAGTGGCGGCTCTTATG
Regarding B3, in the data set with FZP (FRIZZY PANICLE) [2], the binding result is “binds”.

B4: DRE probe (3 repeats) (dsDNA)
DNA 1: ATACTACCGACATGAGATACTACCGACATGAGATACTACCGACATGAG
DNA 2: CTCATGTCGGTAGTATCTCATGTCGGTAGTATCTCATGTCGGTAGTAT
B4: in the data set with FZP (FRIZZY PANICLE) [2], the binding result is given as “binds”.
